Measured values reported in the DeepSol protein solubility set.

assay: soluble on expression in E. coli; label from the status in PepcDB or PDB records

| Sequence | soluble on expression in E. coli |
| --- | --- |
| MSLKVALLQIDTVVGDIVGNAARIADAVREAASLGARLCVTPELALCGYPPRDLLLQDDFVPACRKALEALAQQLRDLPPVLVGAPVPNPSPVGNPIHNCAVLLREGKVTVATRKVLLPNYDVFDERRYFESGVGCGVVTIDGWRFGVTICEDVWNDKTFWQEHRHYENDPVADLMAGGADAILNLSASPFTLGKQAVRERMLSRVAFRYRVSVLYANQVGGNDDLVFAGKSIAFDATGTLIARGRSFAEDIVMVDVAQATGTITAEPTSDEEQVWKALVLGTRDYARKCGFDGAVLGLSGGIDSALVAAVAAEALGPDKVLGVLMPSPHSSEGSVTDALALASSLGIATCTIPIGDLMHGFEAALAQAFAGREADVTEENIQSRIRGNLLMALSNKQRRLLLTTGNKSELAVGYCTIYGDMAGGLAVIADLPKTLVYRVAHWLNERDTSHGHEGREARETIPSAILTKEPSAELRPGQRDSDSLPPYDVLDGILERLVELRRSAADIVAEGYDVETVRKVLRLVCNAEFKRRQAPPGLKVTDRAFGTGWRMPVAARVNLGEGHHHHHH | soluble |
| MSLKVALVHDWLTNMGGAERVIINLKEIYKEAPIYTSLYNPDKLDDELRNIDVRTSFLQKPKNIKRGHQKLLPFMPMAFESFDLNEYDIVLSSCSSCAKGVVTNPNTMHVCYCHTPMRYAWEYYYEYADEWGLNKLKGKLLKYVMNYIRLWDGVSSKRVDYYIANSQNVAKRIWKHYKRESVVIHPPVRCKLFDISDVNEEYFLIVSRLVPYKRIDLAVEVFNELGLPLVVIGGGKDLDRLKNMAKDNIKFLGRQSDEVIKEYYSKCRAFIFPGEEDFGITPLEAQASGRPVIAYGKGGALETVVSGVTGVFFKEQTVDSLKSAVNEFEKINFDKSVIRRHAEEFDEEIFKKKIREYLSRSYDEFKKLKKWKVEGHHHHHH | soluble |
| MSLKVHLNYETGPEHWADLQSRLAPGIRLSSGECRPANGFDILVSGEPTLEELEGNGRLRAVIVPWVGVPLATLDRMKEFPSIALHNLPYNIGPTAEMAVALLLAAAKRIVPYDQRLRRGYWSGEHTGVPGSVMLDGGLAVILGYGRIGRRVAAACRGLGMRIAGVRRNPGTSDEEYALADLSGLLPQAAALIVCLPHTHQTDRLIGSRELERLPSNAVLVNVARGGIVNEEALYRTLQARRIYAAGIDVWYRYPSATERKQGLPHPPSSFPFHTLDNVVMSPHRAGWSEEKEPARIAELANMLNAAARGEGHHHHHH | not soluble |
| MSLKVKSIKAITLSMPFSHGGKKVIFHGKEWKSLEFNLIRLETDKGIVGWGEAFGFSSWKAVRVAIEEMVAPMIIGKDMSNIPELLLNLQKSLHLFGRYGITMFAISGVEIALWDAFGKEKNKPVHELLGKKNNDIFKAYSSLFRYGDPKIIEQKCKQSLDDGYRAIKLHEIENNCIEAGRKGTGDLPMMLDTNCPWTYEQTLAKKDFLKSMNLTWLEEPIYPPEDYQTLAKLNKELGIPLACGENACTEYEFKSMIDHKAVSFVQPSVIKVGGIYEMFKIINIAEDKNISVMPHTAYFGPGFLATLQLAALMKKETYIERFYLDIDEEFYPNFKKALNGKYNLPKGPGLGIDLDYKRLSKYEIEGHHHHHH | soluble |
| MSLKVVSLLTDFGDFYPGVMKGVILSLAPEARIVDITHSVEPQNILQGAFLLYHSFRYFRNAVHVAVVDPGVGSERRALVIEGKNHFFVGPDNGILYPSAVEDGIKAAYSIKEEISELVGELSSTFHGRDIFAPAAAMVVRGDYTYFEEINKEELEKLELFDCSIQGNKVRCRVVYVDRFGNVVTNLREVKGKGFYFRGVEFPFVKTYSDVDVGKPLSLIGSFGTLELSVREGSAAEMLGIKRGGGWIELEVLEGGSHHHHHH | soluble |
| MSLKYDYVIIGNSAGGIGCVEAIRELDVDSSILVISAEKYHAYSRALIPYYLDGKIEFEKMYYRPPDFYEKMDVETKLGVRAVGVDVEAKKVLLESGEEVEYGKLLIATGGKPFIPPMEGLGGQSNVFTFLKMDDVLAVEKAIKEAKKAVVLGGGIIGLMASEVLAKKGLDVKVVELADRVLAPVVDETTSRIVERKFEENGVEIILNNTISKVVGEERVEKVILRDGRELEADMLLVAVGVVPNVDIVKNTPIKVNRGIVVNRKMETSVKDVYACGDCAEIYDFVFGANRVLPLWPTAYTGGRIAGFNMVGIEREYNLATSMNAMHFFDYYIINAGLNVPNDSEEFEVIYRLEGDSYRKFALKDGRIAGFIIAGKMERAGIFLKLMEEGIDVSSFKEKLLKDNFGFLDIPEPTRWKLIEDKIKLGVVREIEGHHHHHH | soluble |
| MSLKYKAIAAGLLAAHLLAHPISSLAETKKFPDVSDSAWSKDAIYYLVERNVINGMPDGNFMPYGNLTRAQAAKIIATAIGAKVDPNAKPSYNDAKNSWAASFIAAMEKENIIKGREPGVFDPEGKVTRAEMAAMLVRAYNLKSKVTGPVPTKFADLENHWGKEEVNILVELKLSLGTENGWKPNDSITREQAAQLTAQTDKFSKNSDRPVEEGHHHHHH | soluble |
| MSLKYNNCVIGSRSVFPPRGLQETNIGIVHISDINHYYTLNLSRKIENHLSKLTGAGTGDSVEDSMFLATMEAYERLANSIPVSQQVIASQEELGDLAVPLSDFPKMNQSETSSNGIEKKYLRWSESYNLTDQSRCYIPQVYINLYTHFNYNGEGLTHPISTGCAIHQDYTRAVINGIYEVIERDGIALFWLLKRPLKKLDKQEFIDDLEIFSSPFLGKTTLYDASTINGVYTFCLRAETHFSESIRNVVMFSSNTCPKEAISKLKKELISVIYSLANGIEKQSNLLKQDPMSFYHVDEGALYMAHPSKAYAFEFLNNSSKGSIPTNEIQFSSYGEELRYLIKKLEGLGHKVYVTNLSNRECEENQLKAVKVTIPSLQPISFVHSAREGHHHHHH | not soluble |
| MSLKYSFIAQHKKTWPVGMMCQLMGVTSSGYYSYQKRKSTKTNNEPEHEELLEWVKKISESSKFSYGNRRIRKALNALGYPVGRRKTHRLMREAGIFVRYKKKYKVTTNSNHKQPIFDNVLNRKFQVNEPNRAYVSDMTYIPTHEGWLYLTVVIDLFSRKVVGWNMSSRMKADTVCDALTMAIWQRKPKAGLIVHSDRGSQYASKQYRSLLNQHGLVGSMSKKGDCWDNSVAESFFSRLKDELVHWRNYQTRREAKQDILDYMTMFYNNQRLHSSLDYLSPNQFENRYWGLMKKVAEGHHHHHH | not soluble |
| MSLLHERINFNPKVDVEVKLPERLEEGKITEVNVVVRNRGSKGILEVKIEGEDLIGEAKRVKLDSGEKLVKLSVKPLNKGDKVLKVKALFEDELNLYYSEVYEAEFSIQVLPSVDSIREAAREEVSIRMREALKKGKIGVESTELYGLREYLPGDDVRRIDWKATTRLRKLIVKEFMRESEGDVYIVLDATREMRKRIRRSKIDYASSLVLYIATILIRSNKRVGLILFSEDEFKVVKPEKGSEQLERIRETLRFKPLKGLTSFKGEVGRLKTWDFLRKLFPRKRRGVEEALLSIRNPSYVILITDLMSNTPRLYSAVSMVKKKHKVIILSPNPVLFYSGELDEETLRFLYEKYRERERILRKFNSLVPTVDLGPSDYGREVLEVLEGEGHHHHHH | not soluble |
| MSLLNEENNFYNVDLLDLLKDSNEAVLPYKRIRFRRNQKILTEGAETTYFYIIEDGVVSMSKNTCKEDSIISFLGKQDSIGPLTLLGGAKSPANYTSISEVSVYQFERKYVLNKLLSSPDVFWQMNSLMQSMVSPMLEREAYVNLPSSEKVLAGLIACGERFGRIESDGSCLIPYYFTQKILGNYLNLARAYVATNLRKLEEDGVISLSPKPWRVKNFDVHRQKLKDNYKPYI | not soluble |
| MSLLNENDIEQLTLQRLQSLGWEYRYGKDLPVHEGKFARGDLSGVVFVEQLREAVRKLNPQLPESAVDSVVKSATKSDIGDLVVRNQTFYKLLRDGVRVEYTQNGEQKIEMVRLVDFEHWGNNRFVAVNQLEIRSRKGGKRIPDIIGFVNGLPLVVFELKNPLRESADLLQAFNQFETYKDEIAELFVYNQALIISDGIVARLGSLSADFQRFTPWKVVDEKNKSARLYFDDELQSLLNGLMQPEDLLDYIRYFVLFERDSVGKTIKKIAAYHQYYGVNEAVDSTIWATSEKGDRRIGVMWHTQGSGKSISMLFYAGKLLAQPELKNPTIVVVTDRNDLDGQLFQTFSSGKDLIKQTPQQVEDRDQLRQLLAQNEVGGVFFTTIQKFALNEEESRFPILNERNNIIVISDEAHRSQYGFTQKLHNGKFQTGYARHLRDALPNASFIGFTGTPISLEDKDTQDVFGRYVSIYDLQDAVEDGATVPIVYDDARQIRLNKKDHDALFAEIDALLEEEPSTSLRLREKLLGSQERLIELAADFVQHFAKRNEVVDSKAMMVVSSRQICVDLYNQIIALHPEWHSDNINEGAIKIVMTGSASDTPEMQKHIYSKQEKQTLERRFKDPNDPLKVVIVRDMWLTGFDAPCCNTMYLDKPMKGHNLMQAIARVNRVFANKSRENGGLIVDYVGLAKELRAATQQYTNSTGKGQLAEDVQSVFFKMKEQLEFIRTLFATPIEGKTFDVQAALEKDNPNDLLMAIRFAANHILSLDQLSFDGKAHEQHWFNKKETEPRKKAFLKTAGLVKKGYMLCGTLAEVEPYNQEIAFYDAVRAILTKREQKGTGTNERQILLKKLVNQTVYSEGVIDLFDLLEKPQPQISLLSEEFLQTVKNSPTKNLWVSAMERYLASEIKVKSGTNLTLQKDFERRLKEALNQYHNHNLTVVEILDELFKMSQDFQERLALGKKLGLTKEELAFYEALSQNQSAKDLMGDEVLSKLAKEITETLRKSVTIDWQYKEAVRARIRLLVRRALQKYKYPPDKQEEAVTYVIKQAEEIAEDLTGLEGHHHHHH | soluble |
| MSLLPVNNPPLSTGNVSFYRTTSIDNVHNNYLSEWVEWTKNSISGENRETAFTRLQLCLENSETSLDLSCLGLRSLPRLPDNLDEINVSNNQLSMLPELPRALKELNASSNQLSALPELPVSLEYINVSDNHLFALPELPASLEYINVSDNHLSVLPRLPMSLELLDAARNALEVIPDFPERDDHIIRIFWLNQNRITAIPESILGLSSDSVVNLRENQLSPRIMQTLLQQTAQPDYHGPRIYFSMSDGQQNTLHRPLADAVTAWFPENKQSDVSQIWHAFEHEEHANTFSAFLDRLSDTVSARNTSGFREQVAAWLEKLSASAELRQQSFAVAADATESCEDRVALTWNNLRKTLLVHQASEGLFDNDTGALLSLGREMFRLEILEDIARDKVRTLHFVDEIEVYLAFQTMLAEKLQLSTAVKEMRFYGVSGVTANDLRTAEAMVRSREENEFTDWFSLWGPWHAVLKRTEADRWAQAEEQKYEMLENEYPQRVADRLKASGLSGDADAEREAGAQVMRETEQQIYRQLTDEVLALRLSENGSQLHHSEGHHHHHH | soluble |
| MSLLQTKDYEFWFVTGSQHLYGEETLELVDQHAKSICEGLSGISSRYKITHKPVVTSPETIRELLREAEYSETCAGIITWMHTFSPAKMWIEGLSSYQKPLMHLHTQYNRDIPWGTIDMDFMNSNQSAHGDREYGYINSRMGLSRKVIAGYWDDEEVKKEMSQWMDTAAALNESRHIKVARFGDNMRHVAVTDGDKVGAHIQFGWQVDGYGIGDLVEVMDRITDDEVDTLYAEYDRLYVISEETKRDEAKVASIKEQAKIELGLTAFLEQGGYTAFTTSFEVLHGMKQLPGLAVQRLMEKGYGFAGEGDWKTAALVRMMKIMAKGKRTSFMEDYTYHFEPGNEMILGSHMLEVCPTVALDQPKIEVHSLSIGGKEDPARLVFNGISGSAIQASIVDIGGRFRLVLNEVNGQEIEKDMPNLPVARVLWKPEPSLKTAAEAWILAGGAHHTCLSYELTAEQMLDWAEMAGIESVLISRDTTIHKLKHELKWNEALYRLQKEGHHHHHH | soluble |
| MSLMEDVGKEMSKIIQKRDINERYEELVNEVLKDQDVQAFIQANRERLTDEDIRKSYAKLYEFVQEKKKFQVNDPAMIAPGYEPRLMLNFHYIDVTYVPTADLIARQKEEEIRNRVRAMDMPKDVREANLRDFDPSSQGRAKALAEAMQFLREYPATPKEFHKGLYLQGPFGVGKSFLLGAMANALAERGFTTTIVHFPTFTVEMKQAIGRDQVGEKLDAVKKSPILMIDDIGAESMTSWIRDDVLSVILQYRMQEQLVTFFSSNLDLKALEEHLTVTQRGEQEPLKARRIMERVRYLSKEITMTGNDRRNGEGHHHHHH | soluble |
